B1: flaB mutant F6 (E122, Glu to Ala) (natural protein)
chain: MAINVSTNVSAMTAQRYLNNAADGTQKSMERLSSGYKINSARDDAAGLQISNRLTSQSRGLDMAVRNANDGISIAQTAEGAMNETTNILQRMRDLSLQSANGSNSSSERQAIQEEVSALNDALNRIAETTSFGGNKLLNGSFGNKSFQIGADSGEAVMLSMSDMRSDTKAMGGKSYVATNGKAPDWSVTNATDLTLSYTDKQGEAREVTINAKAGDDLEEVATYINGQNGDIKASVGDEGKLQLFAANQKVSSDVTIGGGLGTEIGFAAGKDVTVKDINVTTVGGSQEAVALIDGALKAVDSQRASLGAFQNRFGHAISNLDNINENVNASRSRIKDTDYARETTQMTKSQILQQASTSVLAQAKQSPSAALSLLG
B2: flaB mutant F1 (Q57, Gln to Ala) (natural protein)
chain: MAINVSTNVSAMTAQRYLNNAADGTQKSMERLSSGYKINSARDDAAGLQISNRLTSASRGLDMAVRNANDGISIAQTAEGAMNETTNILQRMRDLSLQSANGSNSSSERQAIQEEVSALNDELNRIAETTSFGGNKLLNGSFGNKSFQIGADSGEAVMLSMSDMRSDTKAMGGKSYVATNGKAPDWSVTNATDLTLSYTDKQGEAREVTINAKAGDDLEEVATYINGQNGDIKASVGDEGKLQLFAANQKVSSDVTIGGGLGTEIGFAAGKDVTVKDINVTTVGGSQEAVALIDGALKAVDSQRASLGAFQNRFGHAISNLDNINENVNASRSRIKDTDYARETTQMTKSQILQQASTSVLAQAKQSPSAALSLLG
B3: flaB mutant F11 (N320, Asn to Ala) (natural protein)
chain: MAINVSTNVSAMTAQRYLNNAADGTQKSMERLSSGYKINSARDDAAGLQISNRLTSQSRGLDMAVRNANDGISIAQTAEGAMNETTNILQRMRDLSLQSANGSNSSSERQAIQEEVSALNDELNRIAETTSFGGNKLLNGSFGNKSFQIGADSGEAVMLSMSDMRSDTKAMGGKSYVATNGKAPDWSVTNATDLTLSYTDKQGEAREVTINAKAGDDLEEVATYINGQNGDIKASVGDEGKLQLFAANQKVSSDVTIGGGLGTEIGFAAGKDVTVKDINVTTVGGSQEAVALIDGALKAVDSQRASLGAFQNRFGHAISALDNINENVNASRSRIKDTDYARETTQMTKSQILQQASTSVLAQAKQSPSAALSLLG
B4: flaB mutant F9 (R313, Arg to Ala) (natural protein)
chain: MAINVSTNVSAMTAQRYLNNAADGTQKSMERLSSGYKINSARDDAAGLQISNRLTSQSRGLDMAVRNANDGISIAQTAEGAMNETTNILQRMRDLSLQSANGSNSSSERQAIQEEVSALNDELNRIAETTSFGGNKLLNGSFGNKSFQIGADSGEAVMLSMSDMRSDTKAMGGKSYVATNGKAPDWSVTNATDLTLSYTDKQGEAREVTINAKAGDDLEEVATYINGQNGDIKASVGDEGKLQLFAANQKVSSDVTIGGGLGTEIGFAAGKDVTVKDINVTTVGGSQEAVALIDGALKAVDSQRASLGAFQNAFGHAISNLDNINENVNASRSRIKDTDYARETTQMTKSQILQQASTSVLAQAKQSPSAALSLLG
B5: flaB mutant F13 (H316, His to Ala) (natural protein)
chain: MAINVSTNVSAMTAQRYLNNAADGTQKSMERLSSGYKINSARDDAAGLQISNRLTSQSRGLDMAVRNANDGISIAQTAEGAMNETTNILQRMRDLSLQSANGSNSSSERQAIQEEVSALNDELNRIAETTSFGGNKLLNGSFGNKSFQIGADSGEAVMLSMSDMRSDTKAMGGKSYVATNGKAPDWSVTNATDLTLSYTDKQGEAREVTINAKAGDDLEEVATYINGQNGDIKASVGDEGKLQLFAANQKVSSDVTIGGGLGTEIGFAAGKDVTVKDINVTTVGGSQEAVALIDGALKAVDSQRASLGAFQNRFGAAISNLDNINENVNASRSRIKDTDYARETTQMTKSQILQQASTSVLAQAKQSPSAALSLLG
B6: flaB mutant F5 (D94, Asp to Ala) (natural protein)
chain: MAINVSTNVSAMTAQRYLNNAADGTQKSMERLSSGYKINSARDDAAGLQISNRLTSQSRGLDMAVRNANDGISIAQTAEGAMNETTNILQRMRALSLQSANGSNSSSERQAIQEEVSALNDELNRIAETTSFGGNKLLNGSFGNKSFQIGADSGEAVMLSMSDMRSDTKAMGGKSYVATNGKAPDWSVTNATDLTLSYTDKQGEAREVTINAKAGDDLEEVATYINGQNGDIKASVGDEGKLQLFAANQKVSSDVTIGGGLGTEIGFAAGKDVTVKDINVTTVGGSQEAVALIDGALKAVDSQRASLGAFQNRFGHAISNLDNINENVNASRSRIKDTDYARETTQMTKSQILQQASTSVLAQAKQSPSAALSLLG
B7: flaB mutant F14 (I324, Ile to Asn) (natural protein)
chain: MAINVSTNVSAMTAQRYLNNAADGTQKSMERLSSGYKINSARDDAAGLQISNRLTSQSRGLDMAVRNANDGISIAQTAEGAMNETTNILQRMRDLSLQSANGSNSSSERQAIQEEVSALNDELNRIAETTSFGGNKLLNGSFGNKSFQIGADSGEAVMLSMSDMRSDTKAMGGKSYVATNGKAPDWSVTNATDLTLSYTDKQGEAREVTINAKAGDDLEEVATYINGQNGDIKASVGDEGKLQLFAANQKVSSDVTIGGGLGTEIGFAAGKDVTVKDINVTTVGGSQEAVALIDGALKAVDSQRASLGAFQNRFGHAISNLDNNNENVNASRSRIKDTDYARETTQMTKSQILQQASTSVLAQAKQSPSAALSLLG
B8: flaB mutant F3 (N87, Asn to Ala) (natural protein)
chain: MAINVSTNVSAMTAQRYLNNAADGTQKSMERLSSGYKINSARDDAAGLQISNRLTSQSRGLDMAVRNANDGISIAQTAEGAMNETTAILQRMRDLSLQSANGSNSSSERQAIQEEVSALNDELNRIAETTSFGGNKLLNGSFGNKSFQIGADSGEAVMLSMSDMRSDTKAMGGKSYVATNGKAPDWSVTNATDLTLSYTDKQGEAREVTINAKAGDDLEEVATYINGQNGDIKASVGDEGKLQLFAANQKVSSDVTIGGGLGTEIGFAAGKDVTVKDINVTTVGGSQEAVALIDGALKAVDSQRASLGAFQNRFGHAISNLDNINENVNASRSRIKDTDYARETTQMTKSQILQQASTSVLAQAKQSPSAALSLLG
B9: flaB mutant F12 (L97, Leu to Asn) (natural protein)
chain: MAINVSTNVSAMTAQRYLNNAADGTQKSMERLSSGYKINSARDDAAGLQISNRLTSQSRGLDMAVRNANDGISIAQTAEGAMNETTNILQRMRDLSNQSANGSNSSSERQAIQEEVSALNDELNRIAETTSFGGNKLLNGSFGNKSFQIGADSGEAVMLSMSDMRSDTKAMGGKSYVATNGKAPDWSVTNATDLTLSYTDKQGEAREVTINAKAGDDLEEVATYINGQNGDIKASVGDEGKLQLFAANQKVSSDVTIGGGLGTEIGFAAGKDVTVKDINVTTVGGSQEAVALIDGALKAVDSQRASLGAFQNRFGHAISNLDNINENVNASRSRIKDTDYARETTQMTKSQILQQASTSVLAQAKQSPSAALSLLG
B10: flaB mutant F8 (N312, Asn to Ala) (natural protein)
chain: MAINVSTNVSAMTAQRYLNNAADGTQKSMERLSSGYKINSARDDAAGLQISNRLTSQSRGLDMAVRNANDGISIAQTAEGAMNETTNILQRMRDLSLQSANGSNSSSERQAIQEEVSALNDELNRIAETTSFGGNKLLNGSFGNKSFQIGADSGEAVMLSMSDMRSDTKAMGGKSYVATNGKAPDWSVTNATDLTLSYTDKQGEAREVTINAKAGDDLEEVATYINGQNGDIKASVGDEGKLQLFAANQKVSSDVTIGGGLGTEIGFAAGKDVTVKDINVTTVGGSQEAVALIDGALKAVDSQRASLGAFQARFGHAISNLDNINENVNASRSRIKDTDYARETTQMTKSQILQQASTSVLAQAKQSPSAALSLLG
B11: flaB mutant F4 (R91, Arg to Ala) (natural protein)
chain: MAINVSTNVSAMTAQRYLNNAADGTQKSMERLSSGYKINSARDDAAGLQISNRLTSQSRGLDMAVRNANDGISIAQTAEGAMNETTNILQAMRDLSLQSANGSNSSSERQAIQEEVSALNDELNRIAETTSFGGNKLLNGSFGNKSFQIGADSGEAVMLSMSDMRSDTKAMGGKSYVATNGKAPDWSVTNATDLTLSYTDKQGEAREVTINAKAGDDLEEVATYINGQNGDIKASVGDEGKLQLFAANQKVSSDVTIGGGLGTEIGFAAGKDVTVKDINVTTVGGSQEAVALIDGALKAVDSQRASLGAFQNRFGHAISNLDNINENVNASRSRIKDTDYARETTQMTKSQILQQASTSVLAQAKQSPSAALSLLG
B12: flaB mutant F2 (N83, Asn to Ala) (natural protein)
chain: MAINVSTNVSAMTAQRYLNNAADGTQKSMERLSSGYKINSARDDAAGLQISNRLTSQSRGLDMAVRNANDGISIAQTAEGAMAETTNILQRMRDLSLQSANGSNSSSERQAIQEEVSALNDELNRIAETTSFGGNKLLNGSFGNKSFQIGADSGEAVMLSMSDMRSDTKAMGGKSYVATNGKAPDWSVTNATDLTLSYTDKQGEAREVTINAKAGDDLEEVATYINGQNGDIKASVGDEGKLQLFAANQKVSSDVTIGGGLGTEIGFAAGKDVTVKDINVTTVGGSQEAVALIDGALKAVDSQRASLGAFQNRFGHAISNLDNINENVNASRSRIKDTDYARETTQMTKSQILQQASTSVLAQAKQSPSAALSLLG
B13: flaB mutant F7 (D152, Asp to Ala) (natural protein)
chain: MAINVSTNVSAMTAQRYLNNAADGTQKSMERLSSGYKINSARDDAAGLQISNRLTSQSRGLDMAVRNANDGISIAQTAEGAMNETTNILQRMRDLSLQSANGSNSSSERQAIQEEVSALNDELNRIAETTSFGGNKLLNGSFGNKSFQIGAASGEAVMLSMSDMRSDTKAMGGKSYVATNGKAPDWSVTNATDLTLSYTDKQGEAREVTINAKAGDDLEEVATYINGQNGDIKASVGDEGKLQLFAANQKVSSDVTIGGGLGTEIGFAAGKDVTVKDINVTTVGGSQEAVALIDGALKAVDSQRASLGAFQNRFGHAISNLDNINENVNASRSRIKDTDYARETTQMTKSQILQQASTSVLAQAKQSPSAALSLLG

What follows are molecules tested against TLR5 protein from pGEX-6p-1 (GST-His*10-TEV-TLR5, digested with TEV protease), used for SPR (silvery pomfret (Pampus argenteus)) (assay: SPR; BIAcore S200; TLR5 immobilised on an SA sensor chip; flaB proteins injected at 30 uL/min in PBS-P, 25°C; 1:1 Langmuir fit).

Point of comparison: B3, Kd 13 µM. Against it:
- flagellin B (flaB) from Vibrio anguillarum, wild type, recombinant (from UniProt Q56572 1-376) (natural protein) — 4-fold lower, 3.28 µM
- B1 — 3-fold lower, 4.4 µM
- B2 — 30-fold lower, 0.431 µM
- B4 — within 1.5-fold, 14.8 µM
- B5 — 1.8-fold lower, 7.29 µM
- B6 — 3.6-fold higher, 46.3 µM
- B7 — 2.1-fold higher, 27.5 µM
- B8 — 2-fold higher, 26.2 µM
- B9 — 5.4-fold lower, 2.41 µM
- B10 — 3.4-fold lower, 3.8 µM
- B11 — 5.1-fold lower, 2.57 µM
- B12 — 29-fold lower, 0.447 µM
- B13 — 5.5-fold higher, 71.7 µM

From paper PMC8667730
